± gives the standard error. This sample holds only a part of the variants without activity.
B1: glmS ribozyme (parent)
chain: AUAAAAGCGCCAGAACUACAGAAAUGUAGUUGACGAGGAGGAGGUUUAUCGAAUUUUCGGCGGAUGCCUCCAAA

How the values were obtained:
Conditions in all cases: with glucosamine-6-phosphate
glucosamine-6-phosphate [1] = variants of: B1; test: self-cleavage kobs at 40 uM GlcN6P; higher = faster cleavage; RNA array
How it was run: (§1)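 Glucosamine-6-phosphate in HEPES/KCl/Mg(OAc)2 buffer, at 40 μM to 10 mM, was flowed over barcoded ribozyme variants transcribed in situ by E. coli RNA polymerase on sequenced MiSeq chips. Tracking was through a hybridised Cy3 probe at 37 °C. kobs, kcat and KM came from exponential decay fits and weighted Michaelis–Menten fits of normalised per-tile medians.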

glucosamine-6-phosphate [2] = variants of: B1; test: self-cleavage kobs at 640 uM GlcN6P; higher = faster cleavage; RNA array
How it was run: as §1

glucosamine-6-phosphate [3] = variants of: B1; test: self-cleavage kobs at 2500 uM GlcN6P; higher = faster cleavage; RNA array
How it was run: as §1

glucosamine-6-phosphate [4] = variants of: B1; test: self-cleavage kobs at 10000 uM GlcN6P; higher = faster cleavage; RNA array
How it was run: as §1

glucosamine-6-phosphate [5] = variants of: B1; test: self-cleavage kobs at 160 uM GlcN6P; higher = faster cleavage; RNA array
How it was run: as §1

Variant | self-cleavage kobs at 40 uM GlcN6P (glucosamine-6-phosphate [1]) [s⁻¹] | self-cleavage kobs at 640 uM GlcN6P (glucosamine-6-phosphate [2]) [s⁻¹] | self-cleavage kobs at 2500 uM GlcN6P (glucosamine-6-phosphate [3]) [s⁻¹] | self-cleavage kobs at 10000 uM GlcN6P (glucosamine-6-phosphate [4]) [s⁻¹] | self-cleavage kobs at 160 uM GlcN6P (glucosamine-6-phosphate [5]) [s⁻¹]
C10G U57G | < 1e-05 | < 1e-05 | < 1e-05 | < 1e-05 | –
G9A G13C | < 1e-05 | < 1e-05 | < 1e-05 | – | < 1e-05
C16A A48G | < 1e-05 | < 1e-05 | < 1e-05 | < 1e-05 | –
C8G A48C | < 1e-05 | – | < 1e-05 | – | < 1e-05
C10A C16U | < 1e-05 | < 1e-05 | – | – | < 1e-05
U30G C58G | < 1e-05 | 6.88e-05 ± 3e-05 | 6.46e-05 ± 1.8e-05 | 0.000122 ± 1.4e-05 | –
C19A C67A | 0.000243 ± 6.1e-05 | 0.00033 ± 9.6e-05 | – | 0.000881 ± 0.00024 | –
G59C A64U | < 1e-05 | < 1e-05 | – | < 1e-05 | < 1e-05
A39G C70U | 0.00118 ± 0.00015 | 0.00828 ± 0.0017 | 0.0127 ± 0.0053 | 0.022 ± 0.0045 | 0.0014 ± 0.0004
U54A U55G | 0.00074 ± 7.7e-05 | 0.00651 ± 0.0008 | 0.0121 ± 0.0021 | 0.0328 ± 0.011 | 0.00127 ± 0.00022
G40U U56A G62U C67G | < 1e-05 | < 1e-05 | < 1e-05 | – | < 1e-05
A14C C67U C70U | < 1e-05 | – | – | 6.08e-05 ± 1.4e-05 | –
G32C A53U G59C C71U | < 1e-05 | < 1e-05 | – | < 1e-05 | –
G35U | < 1e-05 | < 1e-05 | < 1e-05 | < 1e-05 | < 1e-05
C10U A64C | < 1e-05 | < 1e-05 | < 1e-05 | – | –
A6G A14U G40C C67G | < 1e-05 | < 1e-05 | – | – | –
A15G U30A G41A G51U G62A | < 1e-05 | – | < 1e-05 | – | –
A15U G38U C50G | 0.000125 ± 3.7e-05 | – | – | – | –
G9A A12U C61A | < 1e-05 | – | – | – | –
G37C A39G | < 1e-05 | – | – | 3.63e-05 ± 7.3e-06 | –

Source: the supplement of paper PMC7125110
